Source: PMC4784909, “The Structural Basis of Coenzyme A Recycling in a Bacterial Organelle” (PLoS Biology, 2016)
Where two headings read alike, the source gives them in different places.

What was measured:
[1] = molecular target: pPduL, full length (PduL from the pvm locus of Planctomyces limnophilus) (Planctomyces limnophilus); test: SEC; post-nickel affinity protein on HiLoad 26/60 Superdex 200 preparative column, pooled fractions (1-20 mg/mL) on Superdex 200 10/300 GL analytical column; 20 mM Tris pH 7.4, 50 mM NaCl
[2] = molecular target: pPduL, full length (PduL from the pvm locus of Planctomyces limnophilus) (Planctomyces limnophilus); test: as above; remark: listed apart in the source
[3] = molecular target: T1, rPduLΔEP (Rhodopseudomonas palustris, UniProt Q21A54); test: X-ray crystal structure, […] Å; format: binding; design: gene pduL; C-terminal 6xHis, codon optimized, E. coli BL21(DE3); dimer; contains 2 Zn; conditions: CoA co-purified from E. coli; sulfur coordinates Zn1 of di-zinc active site
[4] = molecular target: T1, rPduLΔEP; design: gene pduL; conditions: crystals soaked 2 d in sodium phosphate pH 7.0; bridges both Zn in active site, CoA dissociated
[5] = molecular target: the molecule itself; test: SEC; post-nickel affinity protein on HiLoad 26/60 Superdex 200 preparative column, pooled fractions (1-20 mg/mL) on Superdex 200 10/300 GL analytical column; 20 mM Tris pH 7.4, 50 mM NaCl
[6] = molecular target: the molecule itself; test: SEC-MALS; Superdex S200 10/300 GL, 1 mg/ml protein injected, 0.5 ml/min, 20 mM Tris, 50 mM NaCl, pH 7.4

pPduL, full length (PduL from the pvm locus of Planctomyces limnophilus) (enzyme)
stoichiometry N [1]: 2 | stoichiometry N [2]: 6

CC(C)(COP(=O)(O)OP(=O)(O)OC[C@H]1O[C@@H](n2cnc3c(N)ncnc32)[C@H](O)[C@@H]1OP(=O)(O)O)[C@@H](O)C(=O)NCCC(=O)NCCS [Coenzyme A]
X-ray crystal structure, 1.54 Å [3]: tetrahedral coordination state with His48, His50, Glu109, and the CoA sulfur

O=P(O)(O)O [phosphate]
X-ray crystal structure, phosphate soak, 2.10 Å [4]: the CoA dissociates, and density for a phosphate molecule is visible at the active site

B1: rPduLΔEP (PduL from the grm3 locus of Rhodopseudomonas palustris BisB18, N-terminal putative encapsulation peptide removed) (enzyme, UniProt Q21A54 34-226, looked up)
chain: GVDPFQVAVGVSNRHIHLSRTDMDTLFGPGAELQRKKAMKQPGQFAAEETVTLKGPKGSLSKVRVLGPLRRETQVEVSVADGFALGITPPLRQSGQLDDTPGLTIIGPQGSVTKDHGVIVAQRHIHMHPSTAAKLGLRNGDEVDVEAGGERGGVMHRVLIRVAEASADEMHIDVEEANALCLKNDDVVRICKK
notes: PduL phosphotransacylase, grm3 locus, Rhodopseudomonas palustris BisB18; N-terminal putative EP (33 amino acids) removed; the crystallized construct begins with M-G-V; The construct begins with M-G-V; Gene codon optimized and synthesized with the 6xHis tag; no tag cleavage step is described; Crystals hold CoA (or phosphate) and two zinc ions per chain; also called truncated rPduL; Pdul-His; …
stoichiometry N [5]: 2

B2: rPduL, full length (PduL from the grm3 locus of Rhodopseudomonas palustris BisB18) (enzyme, UniProt Q21A54 1-226, looked up)
chain: MDMQQETIERIIRQVLGQVGPAGGSIATLSGDAGVDPFQVAVGVSNRHIHLSRTDMDTLFGPGAELQRKKAMKQPGQFAAEETVTLKGPKGSLSKVRVLGPLRRETQVEVSVADGFALGITPPLRQSGQLDDTPGLTIIGPQGSVTKDHGVIVAQRHIHMHPSTAAKLGLRNGDEVDVEAGGERGGVMHRVLIRVAEASADEMHIDVEEANALCLKNDDVVRICKK
notes: PduL phosphotransacylase, grm3 locus, Rhodopseudomonas palustris BisB18, with its N-terminal encapsulation peptide; Two oligomeric states by SEC (about a dimer and a higher oligomer); six subunits by SEC-MALS; also called rPduL hexamer; wildtype construct; source: E. coli BL21(DE3), purified (HisTrap, Superdex 200)
stoichiometry N [5]: ~2 | stoichiometry N [6]: 6
